This note sets out measurements from US20070280945A1 (Regeneron, published 2007).

The target in assay [1] is T1, hIL-6R on hIL-6-responsive human cells (XG-1 myeloma line, HepG2 hepatoma line) (human, UniProt P08887 20-468).
T1 sequence (looked up): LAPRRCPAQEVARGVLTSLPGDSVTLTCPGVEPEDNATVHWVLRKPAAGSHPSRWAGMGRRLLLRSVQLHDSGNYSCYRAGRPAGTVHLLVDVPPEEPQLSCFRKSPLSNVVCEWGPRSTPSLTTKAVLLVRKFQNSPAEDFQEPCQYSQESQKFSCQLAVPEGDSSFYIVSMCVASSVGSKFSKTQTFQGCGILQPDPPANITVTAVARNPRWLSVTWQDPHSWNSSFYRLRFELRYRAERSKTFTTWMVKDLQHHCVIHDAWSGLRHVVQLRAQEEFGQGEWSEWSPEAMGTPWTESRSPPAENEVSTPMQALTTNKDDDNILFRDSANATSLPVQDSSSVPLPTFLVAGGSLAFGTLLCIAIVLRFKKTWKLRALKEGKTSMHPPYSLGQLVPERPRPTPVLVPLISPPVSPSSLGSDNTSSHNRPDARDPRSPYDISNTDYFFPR
The assay can be described thus: cell-based or functional assay.

For assay [2], the target named is T2, recombinant hIL-6R protein, monomeric form (human, UniProt P08887 20-358).
T2 construct: also called monomeric hIL-6R; Human IL6R
T2 sequence: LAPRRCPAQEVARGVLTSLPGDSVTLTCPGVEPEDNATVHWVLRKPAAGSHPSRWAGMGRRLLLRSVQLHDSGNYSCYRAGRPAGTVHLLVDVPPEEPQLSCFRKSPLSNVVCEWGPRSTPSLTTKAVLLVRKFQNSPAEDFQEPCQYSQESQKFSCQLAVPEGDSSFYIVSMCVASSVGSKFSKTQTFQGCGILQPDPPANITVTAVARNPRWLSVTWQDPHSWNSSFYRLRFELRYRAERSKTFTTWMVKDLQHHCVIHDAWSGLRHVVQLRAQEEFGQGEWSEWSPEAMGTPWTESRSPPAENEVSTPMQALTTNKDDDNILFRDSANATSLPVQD
Kind of assay: SPR (BIAcore), antibody captured on goat anti-human Fc, monomeric hIL-6R 1.56-12.5 nM. For orientation: Surface plasmon resonance follows binding to a sensor surface in real time, without labels.
Experimental: (§1) The binding affinity to monomeric hIL-6R of four antibodies having mouse IgG, human IgG1 or human IgG4 (wild-type and modified) were determined using BIAcore™ as described above except a goat anti-human Fc polyclonal antibody surface was used to capture hIgG antibodies.

The target in assay [3] is T2, recombinant hIL-6R protein, monomeric …. Kind of assay: SPR (BIAcore), antibody captured on goat anti-human Fc, monomeric hIL-6R 1.56-12.5 nM; modhIgG4 isotype.
Experimental: as §1
In assay [4] the target is T1, hIL-6R on hIL-6-responsive human cells …. The assay can be described thus: cell-based or functional assay. The source holds these as a separate data set.
Assay [5] deals with T2, recombinant hIL-6R protein, monomeric …. Kind of assay: SPR (BIAcore), captured antibody, monomeric hIL-6R.
Experimental: (§2) Four antibodies were tested for cross-reactivity to monkey IL-6R recombinant protein using BIAcore™ technology. Briefly, a biosensor chip on which goat anti-mouse Fc polyclonal antibody was immobilized was used to present anti-hIL-6R monoclonal antibodies to a density of about 75 RU. […] The binding of the receptor to the antibody and the dissociation of the bound complex were monitored in real-time.
The target is the same in assay [6]. The assay can be described thus: Kinexa solution-phase competition immunoassay, monomeric hIL-6R.
Assay [7] addresses T3, hIL-6R recombinant protein (plate-coated, Example 5) (human, UniProt P08887 20-358, limits assumed).
T3 construct: also called antigen
T3 sequence: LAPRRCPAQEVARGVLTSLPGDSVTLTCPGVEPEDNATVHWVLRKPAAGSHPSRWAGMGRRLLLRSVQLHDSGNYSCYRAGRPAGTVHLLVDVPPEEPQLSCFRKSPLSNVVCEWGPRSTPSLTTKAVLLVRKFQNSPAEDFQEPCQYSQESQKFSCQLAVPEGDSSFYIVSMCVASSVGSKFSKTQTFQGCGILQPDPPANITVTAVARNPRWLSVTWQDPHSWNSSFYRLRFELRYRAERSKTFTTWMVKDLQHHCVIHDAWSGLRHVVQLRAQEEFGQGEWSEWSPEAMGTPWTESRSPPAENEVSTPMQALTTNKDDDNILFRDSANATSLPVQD
Kind of assay: SPR (BIAcore) competition on hIL-6R; competitor: control antibody.

Assay [8] concerns the target T2, recombinant hIL-6R protein, monomeric …. Kind of assay: SPR (BIAcore), captured mouse-IgG antibody, monomeric hIL-6R 1.56-12.5 nM.
Text: Briefly, a biosensor chip on which goat anti-mouse Fc polyclonal antibody was immobilized was used to present anti-hIL-6R monoclonal antibodies to a density of about 75 RU. […] The binding of the receptor to the antibody and the dissociation of the bound complex were monitored in real-time. Both association rate constant (ka) and dissociate rate constant (kd) were obtained, and KD calculated (Table 4).
as §1
In assay [9] the target is T4, hIL-6R-hFc (human, UniProt P08887 20-358).
T4 construct: also called dimeric hIL-6R; Dimer; not shown: human Fc (hFc)
T4 sequence: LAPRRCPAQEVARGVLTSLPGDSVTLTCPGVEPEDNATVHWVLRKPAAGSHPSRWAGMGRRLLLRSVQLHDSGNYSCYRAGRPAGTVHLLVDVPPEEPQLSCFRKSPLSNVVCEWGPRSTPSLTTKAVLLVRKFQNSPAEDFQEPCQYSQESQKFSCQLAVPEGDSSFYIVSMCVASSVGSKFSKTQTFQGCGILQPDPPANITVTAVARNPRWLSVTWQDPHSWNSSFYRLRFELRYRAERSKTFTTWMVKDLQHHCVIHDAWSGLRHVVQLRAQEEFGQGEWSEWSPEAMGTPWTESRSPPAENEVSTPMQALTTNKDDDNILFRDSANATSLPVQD
Kind of assay: SPR (BIAcore), antibody captured on anti-mouse IgG surface, dimeric hIL-6R.

The target in assay [10] is T2, recombinant hIL-6R protein, monomeric …. The assay can be described thus: SPR (BIAcore), antibody captured on anti-mouse IgG surface, monomeric hIL-6R.
Experimental: (§3) More specifically, the affinity of the antibodies for human IL-6R was measured using a BIAcore® 2000 or BIAcore® 3000. The antibody was captured on an anti-mouse IgG surface and exposed to various concentrations of recombinant hIL-6R protein either in monomeric or dimeric form. Kinetic analysis using BIAevaluation™ software was performed to obtain the association and dissociation rate constants.
In assay [11] the target is T5, Recombinant monkey monomeric IL-6R protein (Macaca fascicularis, extracellular domain) (Macaca fascicularis, UniProt P08887 21-330 (human entry)).
T5 construct: also called Monkey IL6R; monkey IL-6R
T5 chain: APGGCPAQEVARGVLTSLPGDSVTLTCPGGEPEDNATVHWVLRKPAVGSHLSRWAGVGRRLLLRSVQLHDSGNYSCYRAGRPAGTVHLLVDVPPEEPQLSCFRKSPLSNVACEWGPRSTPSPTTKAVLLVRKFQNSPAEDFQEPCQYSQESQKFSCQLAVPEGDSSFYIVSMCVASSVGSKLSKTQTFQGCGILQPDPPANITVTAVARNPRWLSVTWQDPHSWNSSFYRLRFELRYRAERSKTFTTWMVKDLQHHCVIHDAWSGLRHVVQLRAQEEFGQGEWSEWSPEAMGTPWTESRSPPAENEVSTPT
Kind of assay: SPR (BIAcore), antibody captured on goat anti-mouse Fc, monomeric monkey IL-6R injected.
Experimental: as §2

In assay [12] the target is T2, recombinant hIL-6R protein, monomeric …. Kind of assay: SPR (BIAcore), antibody captured on goat anti-mouse Fc, monomeric IL-6R 1.25-40 nM injected.
Experimental: as §2
The target of assay [13] is T4, hIL-6R-hFc. Kind of assay: SPR (BIAcore): hIL-6R-hFc captured, antibody injected, then 50 nM hIL-6; percent reduction in hIL-6 binding.
The target of assay [14] is T4, hIL-6R-hFc. Kind of assay: blocking ELISA: 100 pM hIL-6R-hFc premixed with varied antibody, free hIL-6R-hFc captured on hIL-6-coated plate.
Experimental: This plate was used to capture free hIL-6R-hFc from antibody sample solutions, and the amount of captured hIL-6R-hFc was quantified according to the standard curve. The sample solutions were composed of a constant amount of hIL-6R-hFc recombinant protein (100 pM) and varying amounts of antibody, either in crude hybridoma condition medium or as purified antibody protein, ranging from 0 to about 50 nM in serial dilutions. The antibody-antigen mixtures were incubated at room temperature for ˜2 hours to allow antibody-antigen binding to reach equilibrium. […] After 1 hour binding, the plate was washed and bound hIL-6R-hFc was detected using HRP-conjugated goat anti-hFc polyclonal antibodies (Jackson Immuno Research), and developed using TMB substrate (BD Pharmigen).
Assay [15] concerns the target T3, hIL-6R recombinant protein …. The assay can be described thus: competition ELISA on hIL-6R-coated plate presaturated with competitor control antibody; test antibody 50 ng/ml. (In general: An ELISA detects its analyte on a solid surface through an enzyme-linked reagent.)
Experimental: An antibody binding competition immunoassay was performed using as a control humanized antibody to human IL-6R. Briefly, a 96-well immunosorbent plate was coated with 20 ng per well hIL-6R recombinant protein overnight at 4° C. […] After one hour of additional binding, the free antibody was washed away and the plate-bound antibody was detected with HRP-conjugated goat anti-mouse IgG or IgA, polyclonal antibody and the plate was developed using chromatic HRP substrates and absorbance at 450 nm was recorded.
In assay [16] the target is T4, hIL-6R-hFc. Kind of assay: competition ELISA: antibody premixed with serial dilutions of hIL-6R-hFc, free antibody detected on hIL-6R-hFc-coated plate.
Experimental: Binding affinities of the antibodies to hIL-6R was also measured for either hybridoma-conditioned media or purified proteins by plate-based competition immunoassay. […] For the competition ELISA, briefly, constant amounts of antibody at different levels were premixed with serial dilutions of antigen protein, hIL-6R-hFc, ranging from 0 to 10 μg/ml, and incubated for two hours at room temperature to reach pseudo-binding equilibrium between the antibody and antigen. These solutions were then transferred to 96-well hIL-6R-hFc pre-coated plates to allow the free-antibody in the mixtures to bind to plate-coated hIL-6R-hFc. The plates were typically coated with 1 to 2 μg/ml hIL-6R-hFc protein in PBS solution overnight at 4° C. followed by BSA nonspecific blocking. After washing off excess antibody in solution, plate-bound antibodies were detected with an HRP-conjugated goat anti-mouse IgG or IgA polyclonal antibody reagent and developed using either colorimetric or chemiluminescence substrates. The dependency of the signals on the concentrations of antigen in solution was analyzed with a 4-parameter fit analysis using Prism™ software (Graph Pad) and reported as IC₅₀.
Assay [17] deals with T4, hIL-6R-hFc. Kind of assay: SPR (BIAcore), captured antibody, dimeric hIL-6R.
Experimental: as §3
Assay [18] has as its target T2, recombinant hIL-6R protein, monomeric …. The assay can be described thus: SPR (BIAcore), captured antibody, monomeric hIL-6R. This is another data set of the same source.
Experimental: as §3

B1: VQ8F11-21 modhIgG4 (antibody, V domains shown)
VH: EVQLVESGGGLVQPGRSLRLSCAASRFTFDDYAMHWVRQAPGKGLEWVSGISWNSGRIGYADSVKGRFTISRDNAENSLFLQMNGLRAEDTALYYCAKGRDSFDIWGQGTMVTVSS
VL: DIQMTQSPSSVSASVGDRVTITCRASQGISSWLAWYQQKPGKAPKLLIYGASSLESGVPSRFSGSGSGTDFTLTISSLQPEDFASYYCQQANSFPYTFGQGTKLEIK
notes: Modified human IgG4 constant region; also called VQ8F11-21 modified human IgG4
B1: the “HepG2/STAT3 luciferase assay IC50” value in assay [1] was determined as 0.249 nM. For the same molecule, in assay [2], the Kd stood at 0.053 nM and the kon came out at 881000 M⁻¹ s⁻¹. For the same molecule, the koff in assay [3] was 4.7e-05 s⁻¹.

B2: VV1G4-7 (antibody, IgG2a, V domains shown)
VH: QVQLVQSGAEVKEPGASVKVSCKASGYTFTSYDIIWVRQATGQGLEWMGWMNPNSGNTGYTQNLQGRVTLTRNTSITTVYMELSSLSSEDTAVYYCARDYSSHYYGLDVWGQGTTVTVSS
VL: DIQLTQSPSFLSTSIGDRVTITCWASQDISNYLAWYQQKPGKAPKLLIFVASTLQSGVPSRFSGSGSGTEFTLTISSLQPEDFATYYCQQFNSYPLTFGGGTKVEIK
notes: Human variable regions with mouse constant region
With B2, in assay [4], the “HepG2/Stat3 Luciferase activity IC50” value was 0.578 nM. Further, in assay [4], the “XG-1 cell proliferation Inhibition IC50” value came out at 1.8 nM. Moreover, the “HepG2/STAT3 luciferase assay IC50” value in assay [1] was determined as 0.578 nM. Also, the Kd in assay [5] amounted to 0.241 nM; in [6], 0.197 nM; in assay [8], 0.225 nM; with hIL-6R-hFc [9], 0.07 nM; in assay [10] it was 0.225 nM; in [12], 0.24 nM. For the same molecule, the “% reduction of binding by control antibody” value in [7] is 12%; in assay [15] it was 3%. The results for the koff in [8] and in assay [12] were 7.66e-05 s⁻¹ and 6.18e-05 s⁻¹, respectively. Also, the figures for the kon in assay [8] and in assay [12] were 341000 M⁻¹ s⁻¹ and 257000 M⁻¹ s⁻¹, respectively. In assay [11], the binding result is recorded as “no binding (tested: 1.25-40 nM)”. The “hIL6/hIL6R Binding Inhibition (%)” value in the assay with hIL-6R-hFc [13] was 34%. The IC50 stood at 1.1 nM in the assay with hIL-6R-hFc [14] and 0.041 nM with hIL-6R-hFc [16].

B3: 248982-13-1-E5 (antibody, V domains shown)
VH: QVQLVQSGGDLVQPGRSLRLSCAASGFTFDDYAMHWVRQTPGKGLEWVSGISWNSGAIGYADSVKGRFTISRDNAKNSLYLQMNSLRAEDTALYYCTKEEVGATVDYFYFYGMDVWGQGTTVTVSS
VL: EIVMTQSPATLSLSPGERATLSCWASQSVSNYLAWYQQKPGQAPRLLIYDASNRATGIPARFSGSGSGTDFTLTISSLEPEDFAVYYCQQRSNWPTFGQGTKVEIK
Turning to B3, the Kd with hIL-6R-hFc [17] worked out at 0.785 nM; in assay [18], 0.987 nM. The molecule further came in with an IC50 with hIL-6R-hFc [16] of 0.36 nM.

A word on the Kd: it is the equilibrium constant for the complex coming apart. The term kon denotes the second-order rate constant of association. By koff is commonly meant a measure of how fast the partners let go of each other. By IC50 is commonly meant the midpoint of a concentration-inhibition curve.
